Patent US20080317723A1, “LYMPHATIC ENDOTHELIAL CELLS MATERIALS AND METHODS” (VEGENICS LIMITED, priority 2001, published 2008)

Experiments:
Assay type in all cases: cell-based, human
[1] = test system: VEGFR-3 expressing lymphatic endothelial cells; test: Serum starvation-induced apoptosis, cytoplasmic mono- and oligonucleosomes, isolated VEGFR-3 positive cells; details: for cell survival during serum starvation: VEGFR-3 expressing cells, FIG. 2B
Excerpt: FIG. 2A-FIG. 2B. VEGFR-2 and VEGFR-3, but not VEGFR-1 activating ligands inhibit apoptosis of serum-deprived HMVE cells. Measurement of the cytoplasmic histone-associated DNA fragments (mono- and oligonucleosomes) in serum-starved HMVE cells consisting of two cell populations of blood vascular and lymphatic endothelial cells (FIG. 2A) or in the isolated cell populations after magnetic cell sorting using VEGFR-3 antibodies (FIG. 2B). The enrichment factor of cytoplasmic oligonucleosomes in the apoptotic cells grown for 24 h in serum-free medium (BSA) was chosen as 100 (%). Data represent mean values from three independent experiments (mean±s.d.). […] Isolation of lymphatic and blood vascular endothelial cells. […] Analysis of endothelial cell apoptosis. For the apoptosis assay, 70,000 cells per well were seeded into 24-well plates. Treatments were done in duplicates and apoptosis was detected by measuring cytoplasmic histone-associated DNA fragments using the death detection ELISA PLUS kit (Roche, Indianapolis, Ind.). […] Annexin-V-FLUOS (Roche, Indianapolis, Ind.) was used to detect phosphatidylserine on the apoptotic cells by fluorescence microscopy according to the instructions of the manufacturer. The simultaneous staining with propidium iodide (1 μg/ml) was used for discriminating possible necrotic cells.

[2] = test system: Akt; test: Akt phosphorylation in HMVE cells, Western blot; details: for Akt phosphorylation at Ser473 on growth factor stimulation: HMVE cells; for time of maximal (peak) Akt phosphorylation after exposure: HMVEC, FIG. 4
Procedure: (§1) Western blot analysis. Endothelial cells were cultured on 35 mm dishes to near confluence, starved for 24 h in serum free medium and stimulated as indicated. Wortmannin ([…]), LY294002 ([…]), PD98059 (10-25 μM) or GF109203X (2.5-5 μM) were added 1-3 h before stimulation, where indicated. DMSO, into which the inhibitors were dissolved, was used as a control. After the stimulation, the cells were lysed in lysis buffer (50 mM HEPES, pH 7.5, 150 mM NaCl, 10 mM EDTA, 100 mM NaF, 1% TritonX-100 supplemented with 2 mM Na3VO4, 0.5 mM PMSF, 100 U/ml approtinin and 10 μg/ml leupeptin). Clarified lysates were separated by SDS-PAGE, transferred to nitrocellulose and immunoblotted using the phosphospecific antibodies for Akt-Ser473, Akt-Thr308, p42/44 MAPK-Thr202/Tyr204 or CREB-Ser133. The bound antibodies were detected using horseradish peroxidase conjugated secondary antibodies and enhanced chemiluminescence detection system. The blots were stripped and reprobed with antibodies against Akt, MAPK or CREB for quantification by reading the optical densities of the signals with Multi-Analyst 2.0.1 program (Bio-Rad).
As discussed in the background, a major signal transduction pathway by which growth factor receptors can promote cell survival employs the PI-3-kinase and its downstream target, the serine-threonine kinase Akt. The effect of the different VEGFs on Akt was analyzed by assessing Akt phosphorylation in serine 473 and threonine 308 using phosphospecific antibodies.

[3] = test system: p42/p44 MAPK; test: p42/p44 MAPK Thr202/Tyr204 phosphorylation in HMVE cells, Western blot
Procedure: as §1
The p42/p44 MAPK activation was detected by Western blotting using phospho-Thr202/Tyr204-MAPK specific antibodies and CREB phosphorylation using phospho-Ser133 specific antibodies. The growth factor concentrations used were: VEGF 10 ng/ml, VEGF-C 100 ng/ml and VEGF-C156S 500 ng/ml. […] Effects of inhibition of protein kinase C by GF109203X, MEK1 by PD98059 and PI-3 kinase by LY294002 on p42/p44 MAPK Thr202/Tyr204 phosphorylation, CREB Ser133 phosphorylation and Akt Ser473 phosphorylation in HMVE cells. The growth factor concentrations used were: VEGF 1 ng/ml, VEGF-C 10 ng/ml and VEGF-C156S 500 ng/ml

[4] = test system: HMVE cells; test: Boyden chamber cell migration assay; details: 6 h, VEGF 10 ng/ml, VEGF-C 500 ng/ml, VEGF-D 500 ng/ml, VEGF-C156S 3 μg/ml
Procedure: FIG. 5. VEGFR-3 mediates endothelial cell migration. The migration of HMVE cells in the presence of different VEGFs in a Boyden chamber assay. […] Data represent mean values from three independent experiments (mean±s.d.). The growth factor concentrations used are: VEGF 10 ng/ml, VEGF-C 500 ng/ml, VEGF-D 500 ng/ml and VEGF-C156S 3 μg/ml.
Cell migration assay. Migration assays were performed in a 48-well chemotaxis Boyden chamber (Neuroprobe Inc.). Eight micron Nucleopore polycarbonate filters (Corning) were coated with 100 μg/ml of collagen type I (Upstate Biotechnology) overnight at +4° C. and air dried. The filters were placed over the lower chamber wells containing the growth factors in serum-free growth medium supplemented with 0.2% BSA. For blocking experiments, VEGF and VEGF-C156S were preincubated with a ten-fold molar excess of soluble human VEGFR-3 for 30 min. HMVE cells were suspended in the growth medium and 10,000 cells in 50 μl were added to each well in the upper chamber. The cells were allowed to migrate for 6 h at 37° C. after which the filter was fixed with cold methanol and stained with hematoxylin (Meyer). Non-migrated cells on the upper surface of the filter were removed by scraping with a cotton swab and the number of migrated cells was counted. The assays were run in quadruplicate and repeated with three different batches of HMVECs.

[5] = serum-deprived lymphatic endothelial cells

| Molecule | cell survival during serum starvation [1] | Akt phosphorylation at Ser473 on growth factor stimulation [2] | time of maximal (peak) Akt phosphorylation after exposure [2] [min] | duration of MAPK activation, in words [3] | p42/p44 MAPK activation (phosphorylation) [3] | stimulation of HMVE cell migration [4] | accumulation of oligo- and mononucleosomes [1, 5] | concentration at which the maximum effect was achieved (inhibition of oligo- and mononucleosome accumulation) [1, 5] [ng/mL] |
| --- | --- | --- | --- | --- | --- | --- | --- | --- |
| VEGF | promoted cell survival | phosphorylated at Ser473 | 20 to 30 | more transient than that induced by VEGF-C | significantly stronger | ten-fold stimulation of cell migration |  |  |
| VEGF-C156S: VEGFR-3 specific mutant form of VEGF-C, cysteine 156 changed into serine; recombinant human (Thr103 to Ile225) (protein, UniProt P49767 103-225, looked up, variant C156S) TEETIKFAAAHYNTEILKSIDNEWRKTQCMPREVCIDVGKEFGVATNTFFKPPSVSVYRCGGCCNSEGLQCMNTSTSYLSKTLFEITVPLSQGPKPVTISFANHTSCRCMSKLDVYRQVHSII | induced the survival of only the VEGFR-3 positive cells | phosphorylated at Ser473 | 30 to 40 |  | MAPK activation in HMVE cells was detected | induced the migration of HMVE cells | inhibited dose-dependently | 500 |
